Results from patent publication US20240116985A1 (published 2024).
Starred links: 1 amine or outer side, 2 acyl side, 3 side chain; linkers in the order of their positions; H or OH if unused. Positions of bridges follow the written chain, without caps; N, C: chain ends. Non-standard residues stand in square brackets, D forms with d. Primed or numbered codes have the meaning given here. *: point of attachment. PyrS2″ = (S)-3-amino-1-((pent-4-en-1-yloxy)carbonyl)pyrrolidine-3-carboxylic acid (stapling residue), C=CCCCOC(=O)N1CC[C@@](N[*:1])(C(=O)[*:2])C1; B5(24) = 2-amino-2-(pent-4-en-1-yl)hept-6-enoic acid, 2,2-bis(4-pentenyl)glycine (stitching residue), C=CCCCC(CCCC=C)(N[*:1])C(=O)[*:2]; B5(4) = 2,2-bis(4-pentenyl)glycine = 2-amino-2-(pent-4-en-1-yl)hept-6-enoic acid (stitching residue), C=CCCCC(CCCC=C)(N[*:1])C(=O)[*:2]; B5(5) = 2,2-bis(4-pentenyl)glycine, 2-amino-2-(pent-4-en-1-yl)hept-6-enoic acid (stitching residue), C=CCCCC(CCCC=C)(N[*:1])C(=O)[*:2]; B5(33) = 2-amino-2-(pent-4-en-1-yl)hept-6-enoic acid (bis-pentenylglycine, two olefin side chains), C=CCCCC(CCCC=C)(N[*:1])C(=O)[*:2]; PyrS2 = (S)-3-amino-1-((pent-4-en-1-yloxy)carbonyl)pyrrolidine-3-carboxylic acid, C=CCCCOC(=O)N1CC[C@@](N[*:1])(C(=O)[*:2])C1; B5(3) = 2,2-bis(4-pentenyl)glycine (stitching residue), C=CCCCC(CCCC=C)(N[*:1])C(=O)[*:2]; mPEG2 = N-terminal 3-(2-methoxyethoxy)propanoic acid, COCCOCCC(=O)*; Phe(3-CF3) = N[C@@H](Cc1cccc(C(F)(F)F)c1)C(=O)O; Phe(3-COOH) = N[C@@H](Cc1cccc(C(=O)O)c1)C(=O)O; Phe(3-OMe) = COc1cccc(C[C@H](N)C(=O)O)c1; Phe(2-Cl) = N[C@@H](Cc1ccccc1Cl)C(=O)O; 1Nal = N[C@@H](Cc1cccc2ccccc12)C(=O)O; 2Nal = N[C@@H](Cc1ccc2ccccc2c1)C(=O)O; Bta = N[C@@H](Cc1csc2ccccc12)C(=O)O; Lys(iPr) = CC(C)NCCCC[C@H](N)C(=O)O; αAllylPro = C=CC[C@@]1(C(=O)O)CCCN1; tBuAla = CC(C)(C)C[C@H](N)C(=O)O; 3Thi = N[C@@H](Cc1ccsc1)C(=O)O; Cha = N[C@@H](CC1CCCCC1)C(=O)O; S8 = C=CCCCCCC[C@](C)(N)C(=O)O; Thr(ol) = C[C@@H](O)[C@H](N)CO; Propanoyl(3-OMe) = COCCC(=O)*; PyrS2(4) = not defined here; Leu(ol) = CC(C)C[C@H](N)CO; Alaol = C[C@@H](CO)N*; Ms = CS(=O)(=O)*

T1: B-cat-Halo (UniProt P35222 1-781)
T1 sequence (looked up): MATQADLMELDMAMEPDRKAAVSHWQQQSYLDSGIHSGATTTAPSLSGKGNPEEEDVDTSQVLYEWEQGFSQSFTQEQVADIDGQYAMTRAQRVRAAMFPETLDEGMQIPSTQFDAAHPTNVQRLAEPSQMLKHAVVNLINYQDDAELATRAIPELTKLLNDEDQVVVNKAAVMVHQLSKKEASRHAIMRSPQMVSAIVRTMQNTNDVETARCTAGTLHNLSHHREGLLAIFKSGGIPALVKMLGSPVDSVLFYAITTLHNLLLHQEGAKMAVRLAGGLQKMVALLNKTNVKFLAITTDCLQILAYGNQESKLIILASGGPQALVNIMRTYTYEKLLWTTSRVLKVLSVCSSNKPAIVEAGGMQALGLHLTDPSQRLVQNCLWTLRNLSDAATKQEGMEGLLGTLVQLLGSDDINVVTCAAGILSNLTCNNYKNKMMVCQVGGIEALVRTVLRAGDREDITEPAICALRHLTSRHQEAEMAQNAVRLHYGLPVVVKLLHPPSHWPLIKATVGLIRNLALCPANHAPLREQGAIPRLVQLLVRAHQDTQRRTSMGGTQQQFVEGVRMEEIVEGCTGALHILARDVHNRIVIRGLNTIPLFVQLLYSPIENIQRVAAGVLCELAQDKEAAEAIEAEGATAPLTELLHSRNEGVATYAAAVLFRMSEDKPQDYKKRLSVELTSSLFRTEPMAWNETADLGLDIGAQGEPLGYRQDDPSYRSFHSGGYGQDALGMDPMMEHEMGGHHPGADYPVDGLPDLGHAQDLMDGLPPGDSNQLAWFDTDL

T2: B-cat-Halo (beta-catenin HaloTag NanoBRET construct expressed in HEK293 cells) (Homo sapiens (Human), UniProt P35222 1-781)
T2 sequence: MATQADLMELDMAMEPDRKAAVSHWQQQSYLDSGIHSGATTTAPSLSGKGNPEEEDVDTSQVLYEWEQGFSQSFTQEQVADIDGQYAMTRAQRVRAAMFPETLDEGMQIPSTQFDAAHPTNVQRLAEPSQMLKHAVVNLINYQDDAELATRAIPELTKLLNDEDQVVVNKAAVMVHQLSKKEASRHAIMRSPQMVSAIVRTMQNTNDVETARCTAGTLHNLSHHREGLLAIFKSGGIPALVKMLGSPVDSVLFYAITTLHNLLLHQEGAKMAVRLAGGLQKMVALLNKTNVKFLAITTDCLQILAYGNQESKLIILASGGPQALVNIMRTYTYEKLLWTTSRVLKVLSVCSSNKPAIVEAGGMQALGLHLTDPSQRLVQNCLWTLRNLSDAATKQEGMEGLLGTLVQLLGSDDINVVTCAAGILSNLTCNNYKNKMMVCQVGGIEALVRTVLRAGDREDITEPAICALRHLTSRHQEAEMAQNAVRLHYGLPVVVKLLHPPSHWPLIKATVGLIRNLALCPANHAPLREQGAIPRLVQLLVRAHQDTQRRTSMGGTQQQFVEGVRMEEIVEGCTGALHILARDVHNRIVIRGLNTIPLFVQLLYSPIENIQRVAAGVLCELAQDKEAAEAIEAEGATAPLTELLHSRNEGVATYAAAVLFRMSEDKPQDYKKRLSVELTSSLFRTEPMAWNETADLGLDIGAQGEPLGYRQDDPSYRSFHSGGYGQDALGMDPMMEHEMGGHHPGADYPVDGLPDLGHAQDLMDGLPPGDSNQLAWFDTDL

T3: B-cat-Halo (Homo sapiens (Human), UniProt P35222 1-781)
T3 sequence: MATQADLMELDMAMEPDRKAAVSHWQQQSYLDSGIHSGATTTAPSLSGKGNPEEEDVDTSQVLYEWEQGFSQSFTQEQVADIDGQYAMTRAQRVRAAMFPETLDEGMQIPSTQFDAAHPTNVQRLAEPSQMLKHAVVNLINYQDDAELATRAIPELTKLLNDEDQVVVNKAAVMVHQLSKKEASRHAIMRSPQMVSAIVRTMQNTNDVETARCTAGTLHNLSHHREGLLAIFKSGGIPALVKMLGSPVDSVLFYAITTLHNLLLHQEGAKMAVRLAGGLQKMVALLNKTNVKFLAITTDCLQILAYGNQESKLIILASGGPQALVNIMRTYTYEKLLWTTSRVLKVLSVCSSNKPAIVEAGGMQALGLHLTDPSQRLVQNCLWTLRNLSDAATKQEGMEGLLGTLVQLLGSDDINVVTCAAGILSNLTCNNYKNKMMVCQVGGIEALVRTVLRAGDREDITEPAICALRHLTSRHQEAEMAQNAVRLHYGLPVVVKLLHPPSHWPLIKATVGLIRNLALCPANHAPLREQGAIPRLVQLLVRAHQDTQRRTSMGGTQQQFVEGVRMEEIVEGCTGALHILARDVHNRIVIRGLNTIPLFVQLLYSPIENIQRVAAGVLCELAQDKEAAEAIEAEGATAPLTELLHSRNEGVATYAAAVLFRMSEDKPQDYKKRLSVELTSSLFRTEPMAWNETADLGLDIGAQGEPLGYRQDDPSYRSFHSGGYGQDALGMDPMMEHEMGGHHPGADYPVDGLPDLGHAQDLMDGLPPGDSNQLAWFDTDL


Biological target: T1, B-cat-Halo
Experiment: cell-based or functional assay

Binder	NanoBRET Abs IC50 [µM]
Ac-[αAllylPro]D[tBuAla][B5(3)]DDAA[Phe(3-OMe)]L[PyrS2″]F[Bta]Q-NH2 (staple 1-4, 4-11 (inferred)) [I-1127]	5.4
Ac-[αAllylPro]D[tBuAla][B5(24)]DD[Lys(iPr)]AFN[PyrS2″][Phe(2-Cl)][Bta]Q-NH2 (staple 1-4, 4-11) [I-1131]	18.8
Ac-[αAllylPro]D[tBuAla][B5(3)]DDAA[Phe(3-CF3)]L[PyrS2″]F[Bta]Q-NH2 (staple 1-4, 4-11 (inferred)) [I-1128]	8.1
Ac-[αAllylPro]D[tBuAla][B5(24)]DDAAFN[PyrS2″][Phe(2-Cl)][Bta][Lys(iPr)]-NH2 (staple 1-4, 4-11) [I-1130]	7.6
Ac-[αAllylPro]D[Cha][B5(24)]DDAAFS[PyrS2″][Phe(2-Cl)][Bta][dT]-NH2 (staple 1-4, 4-11) [I-1136]	14.9
Ac-[αAllylPro]D[Cha][B5(3)]DDAAFS[PyrS2″]F[Bta]Q-NH2 (staple 1-4, 4-11 (inferred); not fully specified (residue 9); printed as Ac-PL3-Asp-Cha-B5-Asp-Asp-Ala-Ala-4F3MeF-Ser-PyrS2-Phe-BztA-Gln-NH2) [I-1126]	26.8
Ac-[αAllylPro]D[Cha][B5(3)]DDAA[Phe(3-CF3)]S[PyrS2″]F[Bta]Q-NH2 (staple 1-4, 4-11 (inferred)) [I-1125]	> 20
Ac-[αAllylPro]D[tBuAla][B5(24)]DDA[Lys(iPr)]FN[PyrS2″][Phe(2-Cl)][Bta]Q-NH2 (staple 1-4, 4-11) [I-1132]	> 20

Biological target: T2, B-cat-Halo (beta-catenin HaloTag …)
Experiment: cell-based or functional assay

Binder	NanoBRET Abs IC50 [µM]
mPEG2-[αAllylPro]D[tBuAla][B5(33)]DDAAFT[S8][Phe(2-Cl)][Bta]Q-NH2 (staple 1-4, 4-11) [I-1255]	> 20
Ac-[αAllylPro]D[tBuAla][B5(5)]DTAA[1Nal]T[PyrS2″]F[Bta]S-NH2 (staple 1-4, 4-11) [I-1266]	> 20
Ac-[αAllylPro]D[tBuAla][B5(33)]DTLAFT[PyrS2]F[Bta]S-NH2 (staple 1-4, 4-11) [I-1264]	> 20
{Propanoyl(3-OMe)}-[αAllylPro]D[tBuAla][B5(33)]DDAAFT[S8][Phe(2-Cl)][Bta]Q-NH2 (staple 1-4, 4-11) [I-1261]	19.8
Ms-[αAllylPro]D[tBuAla][B5(33)]DDAAFN[PyrS2][Phe(2-Cl)][Bta][dT]-NH2 (staple 1-4, 4-11; not fully specified; printed as MeSO2-PL3-Asp-Npg-B5-Asp-Asp-Ala-Ala-Phe-Asn-PyrS2-2C1F-BztA-dThr-NH2) [I-1258]	> 20
XDXXDDAAFTXFXQ (not fully specified; MeSO2-PL3-Asp-Npg-B5-Asp-Asp-Ala-Ala-Phe-Thr-S8-2C1F-BztA-Gln-NH2; stapled by olefin metathesis (PL3-B5 and B5-S8)) [I-1260]	24
Ac-[αAllylPro]D[tBuAla][B5(4)]DDAAFL[PyrS2″][Phe(2-Cl)][Bta]Q-NHEt (staple 1-4, 4-11) [I-1248]	29.7
Ac-[αAllylPro]D[tBuAla][B5(33)]DTALFT[PyrS2]F[Bta]S-NH2 (staple 1-4, 4-11) [I-1265]	22.7
mPEG2-[αAllylPro]D[tBuAla][B5(5)]DDAAFN[PyrS2″][Phe(2-Cl)][Bta][dT]-NH2 (staple 1-4, 4-11) [I-1253]	> 20
Ac-[αAllylPro]D[tBuAla][B5(4)]DDAAFT[PyrS2″][Phe(2-Cl)][Bta][Leu(ol)] (staple 1-4, 4-11) [I-1247]	> 20
Ac-[αAllylPro]D[tBuAla][B5(4)]DDAAFL[PyrS2″][Phe(2-Cl)][Bta][Thr(ol)] (staple 1-4, 4-11) [I-1249]	25.2
Ac-[αAllylPro]D[tBuAla][B5(4)]DDAAFL[PyrS2″][Phe(2-Cl)][Bta]-Alaol (staple 1-4, 4-11) [I-1250]	> 20
Ac-[αAllylPro]D[tBuAla][B5(5)]DTAA[2Nal]T[PyrS2″]F[Bta]S-NH2 (staple 1-4, 4-11) [I-1267]	36.9
{Propanoyl(3-OMe)}-[αAllylPro]D[tBuAla][B5(33)]DDAAFN[PyrS2][Phe(2-Cl)][Bta][dT]-NH2 (staple 1-4, 4-11) [I-1259]	18.1
Ac-[αAllylPro]D[tBuAla][B5(33)]DTAAFT[PyrS2]F[Bta]S-NH2 (staple 1-4, 4-11) [I-1263]	20

Biological target: T3, B-cat-Halo
Experiment: cell-based or functional assay

Binder	NanoBRET Abs IC50 [µM]
Ac-[αAllylPro]D[tBuAla][B5(3)]D[Phe(3-COOH)]AAFA[PyrS2″][3Thi][Bta]N-NH2 (staple 1-4, 4-11) [I-2042]	10
Ac-[αAllylPro]D[tBuAla][B5(3)]D[Phe(3-COOH)]AAFA[PyrS2″][Phe(2-Cl)][Bta]N-NH2 (staple 1-4, 4-11) [I-2036]	12.9
Ac-[αAllylPro]D[tBuAla][B5(3)]D[Phe(3-COOH)]AAFS[PyrS2(4)][Phe(2-Cl)][Bta]N-NH2 (staple 1-4, 4-11; not fully specified; reading uncertain; also: staple isomer, earlier eluting HPLC peak) [I-2038]	11.8
Ac-[αAllylPro]D[tBuAla][B5(3)]D[Phe(3-COOH)]AAFS[PyrS2″][Phe(2-Cl)][Bta]N-NH2 (staple 1-4, 4-11) [I-2039]	10.5
Ac-[αAllylPro]D[tBuAla][B5(3)]D[Phe(3-COOH)]AAFL[PyrS2″][Phe(2-Cl)][Bta]NAAA-NH2 (staple 1-4, 4-11) [I-2040]	2.8
Ac-[αAllylPro]D[tBuAla][B5(3)]D[Phe(3-COOH)]AAFF[PyrS2″][3Thi][Bta]N-NH2 (staple 1-4, 4-11) [I-2044]	2.6
Ac-[αAllylPro]D[tBuAla][B5(3)]D[Phe(3-COOH)]AAFA[PyrS2″][Phe(2-Cl)][Bta]N-NH2 (staple 1-4, 4-11; also: staple isomer, earlier eluting HPLC peak) [I-2035]	14.5
Ac-[αAllylPro]D[tBuAla][B5(3)]D[Phe(3-COOH)]AAFN[PyrS2″][Phe(2-Cl)][Bta]F-NH2 (staple 1-4, 4-11) [I-2033]	9.5
Ac-[αAllylPro]D[tBuAla][B5(3)]D[Phe(3-COOH)]AAFF[PyrS2″][Phe(2-Cl)][Bta]N-NH2 (staple 1-4, 4-11) [I-2037]	5
Ac-[αAllylPro]D[tBuAla][B5(3)]D[Phe(3-COOH)]AAFS[PyrS2″][3Thi][Bta]N-NH2 (staple 1-4, 4-11) [I-2045]	13.5
